This passage reports stoichiometry N results from doi:10.1101/2023.01.28.526015.

Like-named read-outs stand apart in the source and are kept apart here.

In experiment [1] the target is DesAOMT, O-methyltransferase from Desulfuromonas acetoxidans (Desulfuromonas acetoxidans). The experiment in a line: SEC.
The target is the same in experiment [2]. The experiment can be described thus: crystal structure.
The target of experiment [3] is StrAOMT, O-methyltransferase from Streptomyces avermitilis (Streptomyces avermitilis). The experiment can be described thus: crystal structure.
The target is the same in experiment [4]. The experiment can be described thus: crystal structure. The source holds these as a separate data set.

In general, stoichiometry N refers to a count of units in the complex or per binding partner. In the case of “DesAOMT, O-methyltransferase from Desulfuromonas acetoxidans (enzyme)”, the stoichiometry N in experiment [1] and in experiment [2] was 2 each time.

Turning to “StrAOMT, O-methyltransferase from Streptomyces avermitilis (enzyme)”, the stoichiometry N in experiment [3] and in experiment [4] was 2 each time.
